According to the Human Domainome abundance scans (Beltran et al. 2025):
± gives the uncertainty stated by the source.

B1: Calcium-binding protein 2, residues 155 to 219; numbered along this chain, Q9NPB3 (parent)
chain: RELRDAFREFDTNGDGRISVGELRAALKALLGERLSQREVDEILQDVDLNGDGLVDFEEFVRMMS

Variants of: B1
Experiment: abundance fitness (aPCA) (normalised: wild type 0, dead -1); higher = more abundant; growth selection in yeast, the domain comes from the species named
Details: Homo sapiens

| Variant | abundance fitness |
| --- | --- |
| RELRDAFREFDTNGDGRISVGELRAALMALLGERLSQREVDEILQDVDLNGDGLVDFEEFVRMMS [K28M] | -0.051 ± 0.17 |
| RELRDAFREFDTNGDGRISVGELRAALIALLGERLSQREVDEILQDVDLNGDGLVDFEEFVRMMS [K28I] | 0.013 ± 0.1 |
| RELRDAFREFDTNGDGRISVGELRAALCALLGERLSQREVDEILQDVDLNGDGLVDFEEFVRMMS [K28C] | -0.01 ± 0.13 |
| RELRDAFREFDTNGDGRISVGELRAALGALLGERLSQREVDEILQDVDLNGDGLVDFEEFVRMMS [K28G] | -0.077 ± 0.064 |
| RELRDAFREFDTNGDGRISVGELRAALDALLGERLSQREVDEILQDVDLNGDGLVDFEEFVRMMS [K28D] | 0.068 ± 0.26 |
| RELRDAFREFDTNGDGRISVGELRAALLALLGERLSQREVDEILQDVDLNGDGLVDFEEFVRMMS [K28L] | -0.07 ± 0.053 |
| RELRDAFREFDTNGDGRISVGELRAAQKALLGERLSQREVDEILQDVDLNGDGLVDFEEFVRMMS [L27Q] | -0.095 ± 0.16 |
| RELRDAFREFDTNGDGRISVGELRAAIKALLGERLSQREVDEILQDVDLNGDGLVDFEEFVRMMS [L27I] | 0.102 ± 0.11 |
| RELRDAFREFDTNGDGRISVGELRAAGKALLGERLSQREVDEILQDVDLNGDGLVDFEEFVRMMS [L27G] | 0.165 ± 0.052 |
| RELRDAFREFDTNGDGRISVGELRAADKALLGERLSQREVDEILQDVDLNGDGLVDFEEFVRMMS [L27D] | -0.464 ± 0.14 |
| RELRDAFREFDTNGDGRISVGELRAAEKALLGERLSQREVDEILQDVDLNGDGLVDFEEFVRMMS [L27E] | -0.311 ± 0.077 |
| RELRDAFREFDTNGDGRISVGELRAAFKALLGERLSQREVDEILQDVDLNGDGLVDFEEFVRMMS [L27F] | 0.077 ± 0.083 |
| RELRDAFREFDTNGDGRISVGELRAAMKALLGERLSQREVDEILQDVDLNGDGLVDFEEFVRMMS [L27M] | -0.025 ± 0.098 |
| RELRDAFREFDTNGDGRISVGELRAAYKALLGERLSQREVDEILQDVDLNGDGLVDFEEFVRMMS [L27Y] | -0.136 ± 0.28 |
| RELRDAFREFDTNGDGRISVGELRAANKALLGERLSQREVDEILQDVDLNGDGLVDFEEFVRMMS [L27N] | 0.088 ± 0.13 |
| RELRDAFREFDTNGDGRISVGELRAARKALLGERLSQREVDEILQDVDLNGDGLVDFEEFVRMMS [L27R] | -0.192 ± 0.057 |
| RELRDAFREFDTNGDGRISVGELRAAVKALLGERLSQREVDEILQDVDLNGDGLVDFEEFVRMMS [L27V] | 0.092 ± 0.068 |
| RELRDAFREFDTNGDGRISVGELRAACKALLGERLSQREVDEILQDVDLNGDGLVDFEEFVRMMS [L27C] | 0.014 ± 0.091 |
| RELRDAFREFDTNGDGRISVGELRAAWKALLGERLSQREVDEILQDVDLNGDGLVDFEEFVRMMS [L27W] | -0.137 ± 0.094 |
| RELRDAFREFDTNGDGRISVGELRAATKALLGERLSQREVDEILQDVDLNGDGLVDFEEFVRMMS [L27T] | 0.064 ± 0.082 |
| RELRDAFREFDTNGDGRISVGELRAASKALLGERLSQREVDEILQDVDLNGDGLVDFEEFVRMMS [L27S] | 0.161 ± 0.06 |

| Variant | abundance fitness |
| --- | --- |
| RELRDAFREFDTNGDGRISVGELRAAKKALLGERLSQREVDEILQDVDLNGDGLVDFEEFVRMMS [L27K] | -0.006 ± 0.26 |
| RELRDAFREFDTNGDGRISVGELRAAPKALLGERLSQREVDEILQDVDLNGDGLVDFEEFVRMMS [L27P] | -0.495 ± 0.081 |
| RELRDAFREFDTNGDGRISVGELRAAHKALLGERLSQREVDEILQDVDLNGDGLVDFEEFVRMMS [L27H] | -0.091 ± 0.15 |
| RELRDAFREFDTNGDGRISVGELRAAAKALLGERLSQREVDEILQDVDLNGDGLVDFEEFVRMMS [L27A] | 0.122 ± 0.073 |
| RELRDAFREFDTNGDGRISVGELRAMLKALLGERLSQREVDEILQDVDLNGDGLVDFEEFVRMMS [A26M] | 0.111 ± 0.11 |
| RELRDAFREFDTNGDGRISVGELRAELKALLGERLSQREVDEILQDVDLNGDGLVDFEEFVRMMS [A26E] | -0.86 ± 0.12 |
| RELRDAFREFDTNGDGRISVGELRADLKALLGERLSQREVDEILQDVDLNGDGLVDFEEFVRMMS [A26D] | -0.379 ± 0.27 |
| RELRDAFREFDTNGDGRISVGELRANLKALLGERLSQREVDEILQDVDLNGDGLVDFEEFVRMMS [A26N] | -0.266 ± 0.16 |
| RELRDAFREFDTNGDGRISVGELRAWLKALLGERLSQREVDEILQDVDLNGDGLVDFEEFVRMMS [A26W] | -0.454 ± 0.097 |
| RELRDAFREFDTNGDGRISVGELRAYLKALLGERLSQREVDEILQDVDLNGDGLVDFEEFVRMMS [A26Y] | -0.17 ± 0.1 |
| RELRDAFREFDTNGDGRISVGELRACLKALLGERLSQREVDEILQDVDLNGDGLVDFEEFVRMMS [A26C] | 0.215 ± 0.11 |
| RELRDAFREFDTNGDGRISVGELRARLKALLGERLSQREVDEILQDVDLNGDGLVDFEEFVRMMS [A26R] | -0.371 ± 0.069 |
| RELRDAFREFDTNGDGRISVGELRAHLKALLGERLSQREVDEILQDVDLNGDGLVDFEEFVRMMS [A26H] | -0.228 ± 0.15 |
| RELRDAFREFDTNGDGRISVGELRAPLKALLGERLSQREVDEILQDVDLNGDGLVDFEEFVRMMS [A26P] | -0.251 ± 0.07 |
| RELRDAFREFDTNGDGRISVGELRASLKALLGERLSQREVDEILQDVDLNGDGLVDFEEFVRMMS [A26S] | -0.214 ± 0.072 |
| RELRDAFREFDTNGDGRISVGELRAGLKALLGERLSQREVDEILQDVDLNGDGLVDFEEFVRMMS [A26G] | 0.05 ± 0.081 |
| RELRDAFREFDTNGDGRISVGELRAKLKALLGERLSQREVDEILQDVDLNGDGLVDFEEFVRMMS [A26K] | -0.587 ± 0.43 |
| RELRDAFREFDTNGDGRISVGELRAVLKALLGERLSQREVDEILQDVDLNGDGLVDFEEFVRMMS [A26V] | -0.095 ± 0.1 |
| RELRDAFREFDTNGDGRISVGELRALLKALLGERLSQREVDEILQDVDLNGDGLVDFEEFVRMMS [A26L] | 0.073 ± 0.058 |
| RELRDAFREFDTNGDGRISVGELRAFLKALLGERLSQREVDEILQDVDLNGDGLVDFEEFVRMMS [A26F] | -0.041 ± 0.29 |
| RELRDAFREFDTNGDGRISVGELRATLKALLGERLSQREVDEILQDVDLNGDGLVDFEEFVRMMS [A26T] | -0.268 ± 0.091 |
